Data as given in US20220296726A1 (Bicycle, published 2022).
Changes are numbered by the printed parent chain. *1 amine or outer side, *2 acyl side, *3 side chain or, on linkers, in order; H or OH if unused. Bridges are numbered along the chain shown (N, C = ends). Where no end group is shown, it is not given here. [ ]: non-standard residue; d: D form. TATA = O=C(CC[*:1])N1CN(C(=O)CC[*:2])CN(C(=O)CC[*:3])C1; Phe(2-Me) = Cc1ccccc1C[C@H](N)C(=O)O

T1: TREM2 on human iPSC macrophages (human, UniProt Q9NZC2 19-230)
T1 sequence (looked up): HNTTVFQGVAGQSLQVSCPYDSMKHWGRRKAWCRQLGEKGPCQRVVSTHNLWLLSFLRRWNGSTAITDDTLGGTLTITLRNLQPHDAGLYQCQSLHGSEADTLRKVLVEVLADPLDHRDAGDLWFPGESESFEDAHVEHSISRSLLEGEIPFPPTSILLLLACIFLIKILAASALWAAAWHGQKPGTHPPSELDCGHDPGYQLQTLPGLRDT

T2: Cyno TREM2 (Cyno, UniProt A0A2K5UY34 49-161)
T2 construct: range 19-131; also called Cyno BLI
T2 sequence: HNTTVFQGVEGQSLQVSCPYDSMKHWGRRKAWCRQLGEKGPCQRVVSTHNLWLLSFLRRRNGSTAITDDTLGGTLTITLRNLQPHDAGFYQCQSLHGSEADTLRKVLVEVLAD

T3: Human TREM2 extracellular domain (ECD), residues 19-131, C-terminally biotinylated, glycosylated (human, UniProt Q9NZC2 19-131, C-terminally biotinylated; glycosylated)
T3 construct: range 19-131; loaded on Superstreptavidin biosensors; also called Human BLI glycosylated
T3 sequence (looked up): T2 sequence with E10A, R60W, F89L

T4: Human TREM2 extracellular domain (ECD), residues 19-131, C-terminally biotinylated, deglycosylated (human, UniProt Q9NZC2 19-131, C-terminally biotinylated; deglycosylated)
T4 construct: range 19-131; loaded on Superstreptavidin biosensors; also called triggering receptor expressed on myeloid cells 2; Human BLI (deglycosylated)
T4 sequence (looked up): T2 sequence with E10A, R60W, F89L

B1: BCY16054 (peptide)
peptide: ACSEYCFWPFYHCA
modifications: linker 2-6-13 via TATA
B2: BCY20073 (peptide)
peptide: CSEYCFWPXYHC
modifications: N-terminal acetyl (Ac); CiSEYCiiFWP[4FPhe]YHCiii; Ci, Cii, Ciii on TATA scaffold
B3: BCY20063 (peptide)
peptide: Ac-CSEYCF[Phe(2-Me)]PFYHC
modifications: linker 1-5-12 via TATA
B4: BCY20066 (peptide)
peptide: CSEYCFWXFYHC
modifications: N-terminal acetyl (Ac); CiSEYCiiFW[44DFP]FYHCiii; Ci, Cii, Ciii on TATA scaffold
B5: BCY20060 (peptide)
peptide: CSEYCFXPFYHC
modifications: N-terminal acetyl (Ac); CiSEYCiiF[6MeTrp]PFYHCiii; Ci, Cii, Ciii on TATA scaffold
B6: BCY20071 (peptide)
peptide: CSEYCFWPXYHC
modifications: N-terminal acetyl (Ac); CiSEYCiiFWP[2MePhe]YHCiii; Ci, Cii, Ciii on TATA scaffold
B7: BCY20075 (peptide)
peptide: CSEYCFWPXYHC
modifications: N-terminal acetyl (Ac); CiSEYCiiFWP[44BPA]YHCiii; Ci, Cii, Ciii on TATA scaffold

molecular target: T1, TREM2 on human iPSC macrophages; assay: cell-based or functional assay

Binder	pSYK (µM)
B1	10.7 µM

molecular target: T2, Cyno TREM2; assay: BLI steady state, cyno TREM2 on sensor
Experimental: (§1) Bio-layer interferometry was performed on an Octet RED384® system (Sartorius) at 25° C. in a buffer containing 50 mM HEPES (pH 7.5), 150 mM NaCl and 0.1% Tween. […] Reference wells containing no bicycle peptides and reference sensors loaded with an unrelated protein (His-tagged MLLT3a) were subjected to the same assay protocol and double reference subtraction was used for processing to account for non-specific binding. Traces were analysed using Octet Software (Version 11.0). Association and dissociation curves were globally fit and the response at equilibrium (Req) plotted against concentration to obtain steady-state KD values.

Binder	Kd
B1	3300 nM

molecular target: T3, Human TREM2 extracellular domain (ECD), …; assay: BLI steady state, glycosylated human TREM2 ECD on sensor
Experimental: as §1

Binder	Kd
B2	2130 nM
B3	1580 nM
B4	980 nM
B5	1110 nM
B6	780 nM
B7	1510 nM

molecular target: T4, Human TREM2 extracellular domain (ECD), …; assay: BLI steady state, deglycosylated human TREM2 ECD on sensor
Experimental: as §1

Binder	Kd
B2	2320 nM
B3	1300 nM
B4	1860 nM
B5	1390 nM
B1	700 nM
B6	910 nM
B7	2400 nM

molecular target: T4, Human TREM2 extracellular domain (ECD), …; assay: Bio-layer interferometry (Octet), direct binding: biotinylated human TREM2 ECD loaded on Superstreptavidin biosensors, peptide in solution at 0.195 to 12.5 µM (7 traces)
Experimental: as §1

Binder	Kd
B1	680 nM
